Source: the DeepSol protein solubility set

Assay: soluble on expression in E. coli; label from the status in PepcDB or PDB records
In the case of “GPGSMLLPRTDSHDPDANDADPRSSSSAPSVSAPALSFTTTADALASTPLSNTNPCAAYTWLPDTRSTAPPDATTRALAYNAYSPPSTAASSATPPPTSSSTAPSTTTVRPPVITVTRATPDTTSTDRTSRRPDSTSTGAYGEDCEPGRYTSGVDLAATSRESVTVSTDPAGNVPVSTSAPFSAST”, the “soluble on expression in E. coli” value was “soluble”. In the case of “GPGSMLRCNISQRVPTHPVVSVKSGLVFERSLVEKYVDEHGRCPVTGDPLRKEDLITAQGAAPDASIASSGSLGAASVPTLLERLQVEWEGVALEQFSLRQQVTQLQLELAHALQQYDAACRVIARLSKELDSLRGGKAVAAEETDKGPAVVVVPAPVLRRMDAAEAAERQARKQRKAAAGSTAATPSQLTEEAQWVATPSSSASASSARSAVRVAAAADASSSGVFVSAVTGDHAIVRYSPDGFSEEARGIGHTATVHTLASQPGDILLSAAEDLTVRVWSTKGAALTVMHTLRYASGVVAMSQRTVGGAYMLCGAGDGVLTLSDLESGAHVVATAPLTLDTTSGALTCVELHPYASLAAVAFQPTELQLWDAREMRADTFISHVRGTAPRTHICSASFSADCVSLAAGLTDGSVYVWDLRQVLAPVAVLPPSADAVPATVRYAPDGRSLVVGGHGVTLYDCARLSASSTAVEAVATAGLKASAVCDVCWTTSGTDVLCGSVDGVVRLYSTAAGAT”, the “soluble on expression in E. coli” value was “soluble”. In the case of “GPGSMLRSLFGRPSLAVLNNYGHMARPASPLLCSQRGVFADRVRAGMILKVDKRYYRVLANTRSQKGQNAASFNIKLTEVGTGRKKEVTAGHGHDFAEARAERVRLLFSGFDDDDMACFVYPEHSSDAGKEVNIPGDSLPELQQKFLCCGMPVDVLHIMPDDDESPNEKDIWSEVVMPSNYTYTVEKLTLKGMYKMAAFVECDGIIGVNDSVQVNDKVKVVIKPDGTAAFGGRAT”, the “soluble on expression in E. coli” value was “not soluble”. With “GPGSMLSRIKRQQEEAQAATRSGGESAINQPGQKESMAVLRLKNDLDNLDGICSKVVIPDPDNMLRMKVTVRPSRPSIWHGGFFDFLLEFREEYPYEGPRVRYVGPNRVWHPNIEGSEFAEKEGMEKASRKTEWSVCLSFQTDWKPTFSLRDVIIMIELLFQDPNPDDPLHGTSKQAAQMMKDDPVRFRTKARYWMSGHYID” the “soluble on expression in E. coli” value was “soluble”. In the case of “GPGSMNCDQSPEAPCIVYICKLIDTQYLVGRVVGSVENHDGAFIGFGRVYSGRLRAGQPVYVHSDGVVVEATVGSVYLFRGAGLEETSEVSAGFLCGVGGLTPCITKYATISSVPNMPPFKPLVLQSTSIVRLSVFPKDPRSLQELERGLRLLYKVDPQVEVSMLPTGEHVIGTAGEVHAERCLKDLIDTFAQVEVVASEPLVSFRETIVSNLSAKPKPHTASLMDGAFHVTLQARPLPAEVLELIKDDGKNSGNNPQLLRQAVAALAEHRRFSADVKNGVVSSGPSRLGFLGAVLLANFDGTADPVACWATLQDWKESVVAGFQAACESGPMAQEPLYGVAFVVTNIFVDADSDISGGMVLPSVREACRAAMKLHPRRLVEPVYECTVYSSGFTQGKIYASLSRRRSEIVEEVPNEGSDLFYIRCWLPAVEAFGLQDELRVQTQGASTAQLQMSHWEVIDADPYFVPTTKEEFEEHGAEVATKNIAEQLLERIMRRKGLYRERVVENAEKQKFSLKGA”, the “soluble on expression in E. coli” value was “not soluble”. With “GPGSMNPYYAAPPPPPQQQQSRPSVDLDDLFGGPTAANEHKPFHAAPGEPAPPSYDALNGGYSSAPPPAHHAAASEPQQSHNGNISGNQSLYYGAAHQQQQQQQSYGVPAAVPASASPYGMSSPPPAFSSSSSITPGTAPPLQPQPQQQQYGAYPAMPASGMAPPAPPLQQQPPQVYVQPQPQPQPMPGPVHQQQQSFAQNSSSSVSPSGAAAVAGPTAAAGVGSGAASSRSAEEEDRLQLERIIRLRRELELEQEREQRKKEELQTWGCPICTFRNKLNEVKCEMCGSTRPGYTAPASTEPPAQHQQQQHQPRPAATPSQVNAGVTDWQCGMCLAPNEAHAERCKVCYAYRSSGIPVPTASPSGAAANANHNGVVSNTPFTTNWKCSVCGEVNPPSKANCKVCSGFQRNGTAVTDAVPAPSTGSGHGAQATSSADPPLPTVWSCSVCTFENSVSAAVCKACESGQRPRHLAPKRDKEKSASSKQHDSRGSGAKDGGGDGEKKCSSSKSQWPCGTCTFLNPIGRKKCDMCGAKRPESYAAEADTTEARAAAKQEAQDDAEEVAWQDDDSVTECNNCHTTFTFLIRRHHCRLCGYVFCAHCSSYSVPLTMGSLPQRVCVNCYKARLEEEKKTKKARRWLDS” the “soluble on expression in E. coli” value was “soluble”. With “GPGSMNRDPQNALLLEQMAQKTKRLLLQRSPSTVNGIRSFSRSLGIADDLGSTQVTAEELQHALQENNVSLEEHELQNIFTVLDRTGKGTIDPTDFIAVMCNNLGPLRKVWLRRVWRMFTKDPDDGSVQVCELQRQFIAEGHPAVVRHETTAAEVRKDFESAFNESTNPDGKISAQEFAEYYAGVSVSCSNDESFVALLRGVWPLPGVSRDFSLSLAKGEAQYQGSYHTEQSLAEKTAVASREAVRSALMRMIRCDHAPVALSSGAAARALCLSLAQADEAGSGFVSEAVFVGALRTHRLYVPNTSVLECLDTNGDGTVDIKYYEELLLPSPSAARLMLLARLWSRCFENKDAAYRVPVQDLHRKYHASSPADKDAFLTAWDVRTAVGGKVELEELVQWYVPQSAAVQRDKDFEALLHRQWGKYDE” the “soluble on expression in E. coli” value was “soluble”. In the case of “GPGSMNVCSNTTKDPLTLMAMWGSMKGYNPEQGFSFEGPEKRLEVILRSTLETHVDGLRSLDDSVWSGVVGSLNAQIVSRESNEYINSYVLTESSLFVMKNRIILITCGTTTLLNSIPNILEAISAVRGELEWVSFMHKNYSFPWMQKGPHTSLADEFATLKQHFPTGKPYIFGPVDSDHYFLFCYDDIIRPCSSEDDTQLSMTMYGLDKEQTKYWFRDRFISTSAETAAIRAATHLDRVVDGTWTLHDLQFEPCGYSINAIRDEEYQTMHITPEDHCSFASYETNSRATNYSDRMKKVLGVFRPQRFTVIVFLDPESPVGKAYNEGKGIGVEPEYYPEYSLLHRTTNEFAPGYVAMKINYVRTAAVEETDAAVGGAEPGAKSGPD”, the “soluble on expression in E. coli” value was “not soluble”. In the case of “GPGSMPPSQTVEYEEDFGHNLMIHREYISKRCRDRVSFELSALSYSNLELRRGQEHLAGIMNRERRGVSVGASGAPDDQVQMQTDVDANSREVLSARYLFNERRLQFCDRFQNFFQSKLENSAASDSNGHEKQHLFSLMEACAVIFGCETEAARETYYRMFLGLDSETLLEEDEALRNRIADAKLVQRVLENNKGRQEVTQSPKLQQQQDQGKPLHAVSSGTSLLNDCEEERFISSIPELSLFEDETEARANGFVEGEDDVKANNGDLTAGSFSSPASSVNLPEEFEEYAPLYKAYITHAVGKGPVASYDISTLGSTGLTAERRRWRTLMEKIVREDYHTMTEVEQMDAIVLNEQLHTVKFFDLKIGDAIRDILQLLQRETGVGSSVNRDTPVGISPNNPERRV”, the “soluble on expression in E. coli” value was “not soluble”. With “GPGSMPTLAVAKDYICRLIGKSYTDEEFSDLCFQFGLELDDITSEKEMFMREQGKSAKANVAPAEAPAHLSEEKLYKIDTPANRHDLLTAEGMACALRVFMGTMPLPNYRVLNRASPLYRMSVEKSVKNVRDYVVCAVLRNIHFNERSYNSFIDYQERLHAGLARRRTLASVGTHDLDKVNTTDFIFACRPRETVRFVPLRQTRELNCAGDGLAQYYAEDRHIGKYVPLISSFPTYPVVYDGTGQNVLSLPPIINSHYSAISVDTRNIFIECTAPDHYKAQVLVNQLVCAFSVYCEDPFTVEAVQVNYEEPTPDGTRSLVTPTMETKEMTMNIERLNSIIGIKMKSGAECAQLLKMMMYTIKETTESEVTVTVPPMRTDVIGVADVMEDVAIAYGYDNITYVECKTHGPVTQTPLSKVAQLLRTEMACAGYTELLTLSLCSRADAFESLGRVDNDVAAHIANPQTMEFQVCRPSLLPGILKTLATNKSKPLPQRFFECADVVLLDNERNFPPVLELKTDYASCGARNQRHLAAAHCNGSSSGFESIHGLTELALLKLGVPSKAAIADDYEGDYYTLEKGEDGAFFPGRAMDIILHRAGQAVRIGHLGVIHPNTLKAYDIPSPCSYMELNIQFLCVPL” the “soluble on expression in E. coli” value was “not soluble”. In the case of “GPGSMSAIKRSLNVGVVGMGNMGIPITRNLAFKARSAMYLQIHSRTLSKARQVCDDMSADGATCAMRIHDRYSTMTKWCDVILLTLAHRAASRKVLLEDSEALVTNARPGQIIVDHTTVDMELSRECAHEAERRGAVFLDAPMSGSPKQAFNNQLVLMVGGPAEQVQRVSPIFRMYADHIHHMGANGSGTAAKLLSQALVASHNAAAAEAMTIANRLGIEDYQKLIQVLDASWGSSTMLRRNAPTMQDLVRNPDKLAPSSGASIDNLLEDLALLDASLPKIEKGDNGNGGREVEEERFPVLDASLRMLGAAVESGMGDRDMAAVIHYIPAAAAMEKEEGVRVQPRGLTSGAFLDRNATGKVNSGPAAAAGAAVAASSPPTPAEIEMDPGSLADSLSAAESSSNGKGSTTQAASIAEPLTTASSQQPPAFTPEDFY”, the “soluble on expression in E. coli” value was “soluble”. For “GPGSMSASSAPDRVYVGKRLHFTNGSRQLVRCGTRNIAVVCNRNELYAIDNACYHHGGPLLLGDIEEMGGHPCIVCPWHSYKIALDTGEGLYLGVELSPAGGTPKQVVRSKGCKQRVHKVEVDEADDVYVLVDLSGPTLESDTYASMELANRERPMSLPVDGGGRGLRVPGIHSHAGVELRSGQVFQHMGSLAEAGGNTGTRGANSLDHAQKTRPHEITSRGSSCSSPTTRLMVSCVAITDVCPQVRQFDFVHHAGPLLRHAELGEYVELELPIKERRTANGGGGQAVDLLSSSSAPAATAGEPMRRRWTICDMNHNSTLFSIIVKAAGTDTQASGSAWLHEHSLSVPLPITRVGGTFTFARHRDTIRRVGGRVLWLTAGVGMTPAYAFLNASLGNSLYVASAEPLHVVHLHSNRTLETVPKLEQFGRWQREFPRSALDTAEKTSGGSGARKPGKTYVMELFIALSTDAGQGQRTSPGSSPPDSCPVATITHRSRLQPANVSAAVQKYFGADMQLAYVCGPQKFVKDCTEALVSTGVPESHILTDDP”, the “soluble on expression in E. coli” value was “not soluble”. For “GPGSMSAVASDDSAGHVVDPVQHTHRYVQEHRLNELFGHLLQLVLYHRPDDPRAFLAEEVRKIREEKVSLSLFTERDLETMFEMIDATAQRWITVAQLRNTCRNLATASSAGNVSTGGGDLTAEQEAAIAGAGDAAGRVTMDKFKEVLSSLLLTKNKWS”, the “soluble on expression in E. coli” value was “soluble”. With “GPGSMSERDKQRRSLERERMATVIFSYISHLMRTHEEETTVADEFIPSTKFFRTETLPNISLIHYVRRVVEHMNCSPEAYIFALAYIRRLFVAGFPLHTHSIYRLLLTAVVVATRVRDDFLFSKKYYSKVGGVTACDLNMMEIHFLADLLEYRVEVSPDEYRVLCNEITALLSSEVSKFDGNSSNPNNDTAAEGVASIQEPVGNSKPRWMSECCLYW” the “soluble on expression in E. coli” value was “not soluble”. In the case of “GPGSMSFSHFVPPISRRRMFFEDQLDEALSREGSPRLSTSNTVGGADLVAAGAANDETFPFPSHAAPGHLLKSLIQATENERCAPDILPYPEAIVDSVVAQIVAQNEQIRLLGTDERQKAAGSDSGVSLLPFKPSDIMALEVQRAQFFLCELLRCRLRKIEALALTINYESQSGAEAHTQLREHLSHNEIVVADRLAELISKCVRQAGLQSAPSELQQLVPNAPYAEGNEVLPIPDIDHYVFCVVLDDLGVVRLGDDAEQTVHAGEVFIVPYRTFRPYILEGRVRLV”, the “soluble on expression in E. coli” value was “not soluble”. With “GPGSMSHSSLKRAPEITPQAATDKDSILCRSAHAKPLSFTTAPRDSAMVKLDVTLLRFMEDEDFRVLTALEMAMRNHDVAPTALVERIAQLPHGGCRKRLNNLLKHKMIHHENTMYDGYAMKYGAYDYLALRTLSKRGTCTGVGHRIGCGKESDIILVRDEAGHECVLKLQRLGRCSFRSVARNRDYKGNGRARHGESWFYLSRLASQKEYSFMKMLYDEGFPVPKPIDQNRHALLMELVPGTLLNNITELGDASKVYRRALELMVKLAESGLIHGDFNEFNLMITDDQRVIMIDFPQMISINHPNASELFDRDVQNLANFFHRRFKVDTTWFPSLEKDVVRKNELDKQVYASGHFTRKQQEDLERLMLEGFQRGEKSDDEAGSQARDSDASDDDGDENALQRSDIGNADVDAGVAGKFMTIPGFARGGESDEEREDSSDDDASEGRLLDEAMGAARERRQGEFYAHNADRNANFFPDGKINEDHVKHQIRKSIRRKDNHDFNRHLHRNVQKGRQKQKIQRQLKSSNGGGFFD” the “soluble on expression in E. coli” value was “not soluble”.
